Experimental data: IntAct's records for PubMed 20664522

B1: CAP-Gly domain-containing linker protein 1 (Homo sapiens), P30622 (parent)
chain: MSMLKPSGLKAPTKILKPGSTALKTPTAVVAPVEKTISSEKASSTPSSETQEEFVDDFRVGERVWVNGNKPGFIQFLGETQFAPGQWAGIVLDEPIGKNDGSVAGVRYFQCEPLKGIFTRPSKLTRKVQAEDEANGLQTTPASRATSPLCTSTASMVSSSPSTPSNIPQKPSQPAAKEPSATPPISNLTKTASESISNLSEAGSIKKGERELKIGDRVLVGGTKAGVVRFLGETDFAKGEWCGVELDEPLGKNDGAVAGTRYFQCQPKYGLFAPVHKVTKIGFPSTTPAKAKANAVRRVMATTSASLKRSPSASSLSSMSSVASSVSSRPSRTGLLTETSSRYARKISGTTALQEALKEKQQHIEQLLAERDLERAEVAKATSHVGEIEQELALARDGHDQHVLELEAKMDQLRTMVEAADREKVELLNQLEEEKRKVEDLQFRVEEESITKGDLEQKSQISEDPENTQTKLEHARIKELEQSLLFEKTKADKLQRELEDTRVATVSEKSRIMELEKDLALRVQEVAELRRRLESNKPAGDVDMSLSLLQEISSLQEKLEVTRTDHQREITSLKEHFGAREETHQKEIKALYTATEKLSKENESLKSKLEHANKENSDVIALWKSKLETAIASHQQAMEELKVSFSKGLGTETAEFAELKTQIEKMRLDYQHEIENLQNQQDSERAAHAKEMEALRAKLMKVIKEKENSLEAIRSKLDKAEDQHLVEMEDTLNKLQEAEIKVKELEVLQAKCNEQTKVIDNFTSQLKATEEKLLDLDALRKASSEGKSEMKKLRQQLEAAEKQIKHLEIEKNAESSKASSITRELQGRELKLTNLQENLSEVSQVKETLEKELQILKEKFAEASEEAVSVQRSMQETVNKLHQKEEQFNMLSSDLEKLRENLADMEAKFREKDEREEQLIKAKEKLENDIAEIMKMSGDNSSQLTKMNDELRLKERDVEELQLKLTKANENASFLQKSIEDMTVKAEQSQQEAAKKHEEEKKELERKLSDLEKKMETSHNQCQELKARYERATSETKTKHEEILQNLQKTLLDTEDKLKGAREENSGLLQELEELRKQADKAKAAQTAEDAMQIMEQMTKEKTETLASLEDTKQTNAKLQNELDTLKENNLKNVEELNKSKELLTVENQKMEEFRKEIETLKQAAAQKSQQLSALQEENVKLAEELGRSRDEVTSHQKLEEERSVLNNQLLEMKKRESKFIKDADEEKASLQKSISITSALLTEKDAELEKLRNEVTVLRGENASAKSLHSVVQTLESDKVKLELKVKNLELQLKENKRQLSSSSGNTDTQADEDERAQESQIDFLNSVIVDLQRKNQDLKMKVEMMSEAALNGNGDDLNNYDSDDQEKQSKKKPRLFCDICDCFDLHDTEDCPTQAQMSEDPPHSTHHGSRGEERPYCEICEMFGHWATNCNDDETF
B2: CAP-Gly domain-containing linker protein 1 (Rattus norvegicus (Rat)), Q9JK25 (parent)
chain: MSMLKPSGLKAPTKILKPGSTALKTPAAAAAPLEKTVPSEKASGPPSSETQEEFVDDFRVGERVWVNGNKPGFIQFLGETQFAPGQWAGIVLDEPIGKNDGSVAGVRYFQCEPLKGIFTRPSKLTRKVQAEDEANGLQTAHARAASPLSTAAATMVSSSPATPSNIPQKPSQPVAKETSATPQISNLTKTASESISNLSEAGSVKKGERELKIGDRVLVGGTKAGVVRFLGETDFAKGEWCGVELDEPLGKNDGAVAGTRYFQCQPKYGLFAPVHKVTKIGFPSTTPAKAKAAAVRRVMATTPASLKRSPSASSLSSMSSVASSVSSKPSRTGLLTETSSRYARKISGTTALQEALKEKQQHIEQLLAERDLERAEVAKATSHVGEIEQELALARDGHDQHVLELEAKMDQLRTMVEAADREKVELLNQLEEEKRKVEDLQFRVEEESITKGDLETQTKLEHARIKELEQSLLFEKTKADKLQRELEDTRVATVSEKSRIMELEKDLALRVQEVAELRRRLESSKPPGDVDMSLSLLQEISALQEKLEVTHTDHQNEVTSLKDHFGTREEMFQKEIKALHAATEKLSKENESLRSKLDHANKENSDVIALWKSKLETAIASHQQAMEELKVSFSKGIGTDSAEFAELKTQIERLRLDYQHEIESLQSKQDSERSAHAKEMESMKAKLMKIIKEKEDSLEAVKARLDTAEDQHLVEMEEMLSKLQEAEIKKEKFASASEEAVSTQTSMQDTVNKLHQKEEQFNMLSSELEKLRENLTDMEAKFKEKDEREDQLVKAKEKLENDIAEIMKMSGDNSSQLTKMNDELRLKERSVEELQLKLTKANENASLLQKSIGEVTLKAEQSQQEAAKKHEEEKKELENKLLELEKKMETSHYQCQDLKAKYEKASSETKIKHEEILQNFQKMLVDTEDKLKAAQEANRDLMQDMEELKSQADKAKAAQTAEDAMQIMEQMTKEKTETLASLEDTKQTNAKLQSELDTLKENNLKTVEELNKSKELLNEENQKMEEFKKEIETLKQAAAQKSQQLSALQEENVKLAEELGRTRDEVTSHQKLEEERSVLNNQLLEMKKSLPSNTLRESEYRKDADEEKASLQKSISLTSALLTEKDAELEKLRNEVTVLRGENASAKSLHSVVQTLESDKVKLELKVKNLELQLKENKRQLSSSSGNTDVQTEEDERAQESQQMIDFLNSVIVDLQRKNQDLKMKVEMMSEAALNGNGEDPNSYDSDDQEKQSKKKPRLFCDICDCFDLHDTEDCPTQAQMSEDPPHSTHHGSRSEERPYCEICEMFGHWATNCNDDETF

Variants of: B1
Settings: with csk2b_human CSNK2B
Target sequence in this assay (P67870 whole entry): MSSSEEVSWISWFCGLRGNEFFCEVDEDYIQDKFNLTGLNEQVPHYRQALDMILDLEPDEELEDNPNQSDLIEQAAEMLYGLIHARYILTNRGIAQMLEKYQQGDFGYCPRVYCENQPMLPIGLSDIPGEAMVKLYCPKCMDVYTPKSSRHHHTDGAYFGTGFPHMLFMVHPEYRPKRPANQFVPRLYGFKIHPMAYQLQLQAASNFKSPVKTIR

effect of a mutation on the interaction	Variant
decreasing interaction	S195A

Variants of: B2
Settings: with dctn1_human DCTN1, Q14203
Chain of dctn1_human DCTN1, Q14203 (Q14203 whole entry): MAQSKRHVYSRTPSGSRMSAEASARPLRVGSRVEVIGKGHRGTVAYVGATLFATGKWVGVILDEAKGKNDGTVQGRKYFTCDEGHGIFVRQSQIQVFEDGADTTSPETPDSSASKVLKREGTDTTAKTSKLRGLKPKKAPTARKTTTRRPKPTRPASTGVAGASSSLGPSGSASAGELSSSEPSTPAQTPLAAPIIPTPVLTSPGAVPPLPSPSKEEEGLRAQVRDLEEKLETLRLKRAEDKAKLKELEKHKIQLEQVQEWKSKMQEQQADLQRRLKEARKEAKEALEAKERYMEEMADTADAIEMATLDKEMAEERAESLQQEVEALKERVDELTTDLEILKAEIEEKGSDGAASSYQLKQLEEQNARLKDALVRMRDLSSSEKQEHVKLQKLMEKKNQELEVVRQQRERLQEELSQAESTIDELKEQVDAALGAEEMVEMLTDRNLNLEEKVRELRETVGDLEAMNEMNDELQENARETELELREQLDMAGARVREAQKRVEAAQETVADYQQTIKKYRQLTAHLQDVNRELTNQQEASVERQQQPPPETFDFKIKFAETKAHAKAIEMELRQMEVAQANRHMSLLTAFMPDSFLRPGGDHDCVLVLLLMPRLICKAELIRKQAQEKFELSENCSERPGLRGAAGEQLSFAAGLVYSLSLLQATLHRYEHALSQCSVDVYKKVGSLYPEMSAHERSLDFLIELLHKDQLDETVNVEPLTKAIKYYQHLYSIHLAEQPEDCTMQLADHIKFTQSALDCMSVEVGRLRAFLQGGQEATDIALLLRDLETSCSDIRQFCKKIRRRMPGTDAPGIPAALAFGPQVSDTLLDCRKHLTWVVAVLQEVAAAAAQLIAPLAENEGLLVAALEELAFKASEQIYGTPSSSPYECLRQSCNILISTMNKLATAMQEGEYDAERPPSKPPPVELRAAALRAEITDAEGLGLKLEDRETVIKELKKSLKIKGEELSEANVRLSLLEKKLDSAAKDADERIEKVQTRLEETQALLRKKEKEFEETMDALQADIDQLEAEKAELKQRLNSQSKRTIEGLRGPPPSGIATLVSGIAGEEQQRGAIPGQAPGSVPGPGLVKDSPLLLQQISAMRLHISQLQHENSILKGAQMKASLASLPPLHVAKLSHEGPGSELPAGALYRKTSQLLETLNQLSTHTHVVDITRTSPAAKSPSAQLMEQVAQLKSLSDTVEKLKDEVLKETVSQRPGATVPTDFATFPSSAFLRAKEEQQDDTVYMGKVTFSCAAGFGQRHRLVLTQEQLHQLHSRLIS

effect of a mutation on the interaction	Variant
decreasing interaction	S1246A

Variants of: B2
Settings: with dctn1_human DCTN1, Q14203
Remark: another data set of the same source

effect of a mutation on the interaction	Variant
disrupting interaction	S194A

Variants of: B2
Settings: with csk2b_human CSNK2B
Target sequence in this assay (P67870 whole entry): as the sequence (P67870 whole entry) above

effect of a mutation on the interaction	Variant
increasing interaction	S194E
